Among the data in US20060009393A1, “Immunogenic epitopes for fibroblast growth factors 5 (FGF-5)” (The Government of the U.S.A as represented by the Secretary …, priority 1999, published 2006) are inhibition of IFN-γ release by Clone 2 CTL against autologous tumor, mAb values, retold here.

For this assay, the target named is HLA-A3 on the autologous RCC cell line (human). Nature of the assay: cell-based or functional assay.

For the substance “W6/32 (pan-anti-class I MHC mAb) (antibody)”, the inhibition of IFN-γ release by Clone 2 CTL against autologous tumor, mAb at 20 µg/ml is > 75%.
